# Results published in ChEMBL document CHEMBL1142441, “Stereochemical studies on the novel monoamine oxidase B substrates (1R,6S)- and (1S,6R)-3-methyl-6-phenyl-3-aza-bicyclo[4.1.0]heptane” (Bioorg Med Chem, 2008).
# B1: Amine oxidase [flavin-containing] B (Homo sapiens) (protein)
# chain: MSNKCDVVVVGGGISGMAAAKLLHDSGLNVVVLEARDRVGGRTYTLRNQKVKYVDLGGSYVGPTQNRILRLAKELGLETYKVNEVERLIHHVKGKSYPFRGPFPPVWNPITYLDHNNFWRTMDDMGREIPSDAPWKAPLAEEWDNMTMKELLDKLCWTESAKQLATLFVNLCVTAETHEVSALWFLWYVKQCGGTTRIISTTNGGQERKFVGGSGQVSERIMDLLGDRVKLERPVIYIDQTRENVLVETLNHEMYEAKYVISAIPPTLGMKIHFNPPLPMMRNQMITRVPLGSVIKCIVYYKEPFWRKKDYCGTMIIDGEEAPVAYTLDDTKPEGNYAAIMGFILAHKARKLARLTKEERLKKLCELYAKVLGSLEALEPVHYEEKNWCEEQYSGGCYTTYFPPGILTQYGRVLRQPVDRIYFAGTETATHWSGYMEGAVEAGERAAREILHAMGKIPEDEIWQSEPESVDVPAQPITTTFLERHLPSVPGLLRLIGLTTIFSATALGFLAHKRGLLVRV
# Experiments:
# [1] = substrate: [H][C@]12CN(C)CC[C@@]1(c1ccccc1)C2; assay: (§1) Activity of 50 nM human recombinant MAOB after 30 mins
# [2] = substrate: [H][C@@]12CN(C)CC[C@]1(c1ccccc1)C2; assay: as §1
protein,measurement,setting,value
B1,Km,[1],221 µM
same,Km,[2],221 µM
